This data set deals with UL12 alkaline nuclease (Herpes simplex virus 1) (UniProt P04294). Put plainly: cleavage_in_vitro. The conditions noted are these: optimal nuclease conditions; 0.06 at strand exchange conditions (pH 7.5, 1 mM MgCl2, 40 mM NaCl, 37 C).
Chain of UL12 alkaline nuclease (Herpes simplex virus 1) (P04294 whole entry): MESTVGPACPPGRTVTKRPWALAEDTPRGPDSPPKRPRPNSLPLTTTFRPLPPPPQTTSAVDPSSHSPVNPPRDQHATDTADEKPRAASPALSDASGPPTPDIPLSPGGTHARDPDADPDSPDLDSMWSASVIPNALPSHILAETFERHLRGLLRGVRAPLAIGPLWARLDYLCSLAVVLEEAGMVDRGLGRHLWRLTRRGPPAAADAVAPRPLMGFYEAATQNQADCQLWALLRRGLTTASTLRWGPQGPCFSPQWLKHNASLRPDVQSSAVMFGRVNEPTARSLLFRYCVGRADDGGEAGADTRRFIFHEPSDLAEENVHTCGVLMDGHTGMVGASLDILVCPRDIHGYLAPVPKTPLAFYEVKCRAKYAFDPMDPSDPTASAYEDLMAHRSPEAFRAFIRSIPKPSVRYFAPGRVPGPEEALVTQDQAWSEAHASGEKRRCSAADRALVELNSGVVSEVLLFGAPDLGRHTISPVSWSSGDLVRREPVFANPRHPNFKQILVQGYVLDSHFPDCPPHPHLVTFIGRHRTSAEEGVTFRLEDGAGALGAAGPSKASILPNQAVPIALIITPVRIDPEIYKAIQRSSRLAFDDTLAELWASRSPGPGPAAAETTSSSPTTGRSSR

E. coli chromosomal DNA gave an activity (ng DNA/min/ng protein) of 0.2.

The values above are taken from patent US20040141994.
